Holding throughout (assay): purified protein
Holding throughout (format): biochemical, Sterolibacterium denitrificans

Substrate in series [1]: CC(C)CCC[C@@H](C)[C@H]1CC[C@H]2[C@@H]3CCC4=CC(=O)CC[C@]4(C)[C@H]3CC[C@]12C
To be noted: apparent, as total steroid concentration, DCPIP as acceptor, 2% HBC, 2% EGME, 0.1 M potassium phosphate pH 6.5, 30 °C.

Substrate in series [2]: C[C@]12CCC(=O)C=C1CC[C@@H]1[C@@H]2CC[C@]2(C)C(=O)CC[C@@H]12
To be noted: pH 6.5; 30.0 °C.

Substrate in series [3]: O=C1C(Cl)=CC(=Nc2ccc(O)cc2)C=C1Cl
Conditions: apparent, electron acceptor, co-substrate cholest-4-en-3-one, 2% HBC, 2% EGME, 0.1 M potassium phosphate pH 6.5, 30 °C.

B1: AcmB (Sterolibacterium denitrificans) (protein)
chain: MSIETNTYDVIVVGSGAGAMLAAARAHDLGLSVLVVEKSDKYGGTSAVSGGAVWIPNNSQMQIKDSFDEALTYLKAATQGLVAEDRLLAYLESAPQMVEYINANMTLQYFPCHRYPDYYQHLPGAKPGGRTMEPMLFDAALLGDEFANLRMAYTGTLLMGKASMTATEAHVMLAKEPGWMLQVIKSLGRYYLDLPWRLKSRHDRKRGLGNAMAAGLRHALLERKVPLWLNTPFESLITEGAENKRVTGIVVKRNGQTLQLTARRGVVLGAGGFERNQQMREQYLPKPTNAAWSATPPHNTGDTIRAAMDIGARAELMDWAWWVPSIHVPGEAAQTGLFAERNLPGCIVVNGKGQRFINEASPYLEFGAAMYENHARSGSAVPAWLIFDGKFRYNYPMGPLMPGQIQPDRKAWLGKVYWRDDTLEGLAKQIGVDAAGLKQSVELNNQYAQDGKDREFDKGGNVFDRYYGDYNVKPNPCLAPIGKPPYYAMRVDAGDIGTKGGLLTDKDARVLDESDRPIEGLYCIGNNSASVMGKAYPGAGGTLGPAMTFGFRAANHIAASK
notes: recombinant, purified; cloned, expressed and purified as in the authors' earlier work; FAD enzyme
With B1, in the series “purified protein [1]”, the Michaelis-Menten constant (Km) turned out to be 23.7 ± 1.16 µM, the kcat stood at 5.8 ± 0.2 s⁻¹ and the kcat/Km is 245000 ± 1000 M⁻¹ s⁻¹. In “purified protein [2]”, the Km was found to be 529.2 ± 32.5 µM and the kcat/Km came out at 87000 ± 5000 M⁻¹ s⁻¹. In the series “purified protein [3]”, the Km is 37.3 ± 3.3 µM and the kcat amounted to 5.8 ± 0.2 s⁻¹.

Usually Km stands for the substrate concentration at which the rate is half of its maximum. For orientation: kcat means the maximal rate divided by the concentration of active sites. What is called kcat/Km is the turnover number divided by the Michaelis constant.

For the origin of these results see article PMC8220720, “Universal capability of 3-ketosteroid Δ^1-dehydrogenases to catalyze Δ^1-dehydrogenation of C17-substituted steroids” (Microbial Cell Factories, 2021).
